B1: ATP-dependent DNA helicase II subunit 2 (Saccharomyces cerevisiae), Q04437 (parent)
chain: MSSESTTFIVDVSPSMMKNNNVSKSMAYLEYTLLNKSKKSRKTDWISCYLANCPVSENSQEIPNVFQIQSFLAPVTTTATIGFIKRLKQYCDQHSHDSSNEGLQSMIQCLLVVSLDIKQQFQARKILKQIVVFTDNLDDLDITDEEIDLLTEELSTRIILIDCGKDTQEERKKSNWLKLVEAIPNSRIYNMNELLVEITSPATSVVKPVRVFSGELRLGADILSTQTSNPSGSMQDENCLCIKVEAFPATKAVSGLNRKTAVEVEDSQKKERYVGVKSIIEYEIHNEGNKKNVSEDDQSGSSYIPVTISKDSVTKAYRYGADYVVLPSVLVDQTVYESFPGLDLRGFLNREALPRYFLTSESSFITADTRLGCQSDLMAFSALVDVMLENRKIAVARYVSKKDSEVNMCALCPVLIEHSNINSEKKFVKSLTLCRLPFAEDERVTDFPKLLDRTTTSGVPLKKETDGHQIDELMEQFVDSMDTDELPEIPLGNYYQPIGEVTTDTTLPLPSLNKDQEENKKDPLRIPTVFVYRQQQVLLEWIHQLMINDSREFEIPELPDSLKNKISPYTHKKFDSTKLVEVLGIKKVDKLKLDSELKTELEREKIPDLETLLKRGEQHSRGSPNNSNN

Variants of: B1
Settings: with sir4_yeast SIR4, P11978
sir4_yeast SIR4, P11978, sequence (P11978 whole entry): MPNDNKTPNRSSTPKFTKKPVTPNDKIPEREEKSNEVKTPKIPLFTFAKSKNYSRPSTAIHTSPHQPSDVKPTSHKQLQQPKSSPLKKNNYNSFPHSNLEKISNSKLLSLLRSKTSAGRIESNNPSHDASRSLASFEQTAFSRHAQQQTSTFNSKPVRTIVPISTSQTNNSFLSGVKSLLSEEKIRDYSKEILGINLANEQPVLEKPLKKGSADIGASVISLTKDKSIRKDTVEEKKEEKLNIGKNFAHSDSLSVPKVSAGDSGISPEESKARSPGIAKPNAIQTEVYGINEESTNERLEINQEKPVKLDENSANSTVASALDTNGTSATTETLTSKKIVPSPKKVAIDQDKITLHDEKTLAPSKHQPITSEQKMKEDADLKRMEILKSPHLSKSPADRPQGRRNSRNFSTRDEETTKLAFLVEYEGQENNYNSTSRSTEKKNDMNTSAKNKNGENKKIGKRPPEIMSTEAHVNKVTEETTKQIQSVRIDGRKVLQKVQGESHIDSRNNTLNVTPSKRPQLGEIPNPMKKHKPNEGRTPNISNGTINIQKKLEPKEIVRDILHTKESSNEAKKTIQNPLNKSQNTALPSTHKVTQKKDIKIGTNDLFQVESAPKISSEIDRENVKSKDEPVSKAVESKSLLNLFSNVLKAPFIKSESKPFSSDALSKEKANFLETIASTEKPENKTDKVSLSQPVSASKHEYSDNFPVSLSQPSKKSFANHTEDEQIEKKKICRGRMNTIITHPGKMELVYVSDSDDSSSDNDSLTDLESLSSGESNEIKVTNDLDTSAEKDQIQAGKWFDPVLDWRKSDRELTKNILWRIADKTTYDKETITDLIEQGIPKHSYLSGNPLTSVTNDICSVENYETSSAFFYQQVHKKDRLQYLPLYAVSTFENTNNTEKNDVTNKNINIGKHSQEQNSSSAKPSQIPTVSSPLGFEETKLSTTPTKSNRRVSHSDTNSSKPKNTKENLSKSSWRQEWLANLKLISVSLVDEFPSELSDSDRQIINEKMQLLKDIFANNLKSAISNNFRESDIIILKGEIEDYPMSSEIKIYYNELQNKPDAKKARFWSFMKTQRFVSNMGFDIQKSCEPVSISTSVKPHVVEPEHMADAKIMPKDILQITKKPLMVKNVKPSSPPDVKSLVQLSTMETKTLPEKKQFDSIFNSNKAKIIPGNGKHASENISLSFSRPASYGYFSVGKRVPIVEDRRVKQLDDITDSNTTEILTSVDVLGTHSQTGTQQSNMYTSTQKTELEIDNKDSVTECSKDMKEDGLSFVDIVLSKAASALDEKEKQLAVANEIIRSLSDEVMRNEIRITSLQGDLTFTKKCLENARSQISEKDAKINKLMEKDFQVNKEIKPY

| effect of a mutation on the interaction | Variant |
| --- | --- |
| decreasing interaction | P437A;F438A |
| decreasing interaction | D441G |

Source: IntAct's records for PubMed 14551211
